This is an account of results in patent US7541156B1, “Method of identifying antinociceptive compounds using protease activated receptor-2” (priority 2000, dated 2009).

Assay [1] concerns the target T1, PAR-2 (Rattus norvegicus, UniProt Q63645).
T1 construct: assessing the response of primary neuronal cultures to trypsin and AcPep; endogenous in cells; host or cells: primary cultures of adult Sprague-Dawley rat DRG neurons
T1 sequence (Q63645 26-397): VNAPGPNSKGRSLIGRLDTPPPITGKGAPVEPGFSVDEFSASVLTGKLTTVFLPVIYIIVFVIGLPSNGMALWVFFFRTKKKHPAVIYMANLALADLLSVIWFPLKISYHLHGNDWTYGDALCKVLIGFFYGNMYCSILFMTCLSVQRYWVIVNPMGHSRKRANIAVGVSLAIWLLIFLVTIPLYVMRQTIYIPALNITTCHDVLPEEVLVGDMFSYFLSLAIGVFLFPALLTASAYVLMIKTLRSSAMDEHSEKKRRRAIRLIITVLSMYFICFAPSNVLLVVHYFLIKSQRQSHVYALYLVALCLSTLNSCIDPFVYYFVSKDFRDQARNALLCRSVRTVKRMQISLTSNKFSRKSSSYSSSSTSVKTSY
In words: Intracellular Ca2+ response of primary neuronal cultures. The class given is cell-based. The note with it: primary neuronal cultures of adult rat DRGs. An excerpt: In the results which follow, it is shown that activated proteases can have direct effects on sensory neurons, mediated by specific receptors. PAR-1 and PAR-2 are present in rat DRGs (Young et al. 2000). The presence of one of these receptors, PAR-2, in sensory neurons is first confirmed by finding evidence of mRNA and protein expression in adult rat thoracic DRGs. The functional implications of PAR-2 expression are then examined by assessing the response of primary neuronal cultures to trypsin and AcPep. Both agonists increased intracellular Ca^2+ confirming previously reported findings that a functional PAR 2 receptor is present in adult rat DRGs (Steinhoff et al. 2000). Trypsin stimulates both PAR-1 and PAR-2 and therefore an increase in intracellular Ca^2+ can be caused by activation of the two different receptors. […] Therefore the increased intracellular Ca^2+ response to AcPep reflects specific PAR-2 mediated activation.
Cell Culture. Primary cultures of rat DRG neurons were prepared from male adult Sprague Dawley rats (200-250 gm). Following enzymatic treatment and dissociation, neurons were spun through a percoll cushion (Hofbauer et al. 1998) and were plated at a density of 10,000-20,000 neurons/well of a 48 well tissue culture plate. […]

Assay [2] concerns the target T2, PAR-2 (Homo sapiens, UniProt P55085).
T2 sequence (P55085 26-397): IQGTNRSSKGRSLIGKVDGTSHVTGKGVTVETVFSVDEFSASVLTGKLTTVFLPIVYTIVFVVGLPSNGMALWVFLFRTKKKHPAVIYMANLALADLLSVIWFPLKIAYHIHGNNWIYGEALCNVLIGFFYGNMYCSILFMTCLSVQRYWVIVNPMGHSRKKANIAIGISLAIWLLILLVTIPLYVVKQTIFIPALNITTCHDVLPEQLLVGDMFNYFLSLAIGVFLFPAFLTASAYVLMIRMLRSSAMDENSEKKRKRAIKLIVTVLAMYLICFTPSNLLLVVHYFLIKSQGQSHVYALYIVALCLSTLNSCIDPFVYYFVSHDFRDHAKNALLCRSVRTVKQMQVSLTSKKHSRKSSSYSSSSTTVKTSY
The note with it: Blackhart et al. 1996; cited from earlier work.

The subject of assay [3] is peripheral afferent nerve endings. The note with it: subcutaneous injection of 500 μg into the rat paw; cited from earlier work.

As to “SLIGRL (PEPTIDE (1)..(6) PAR-2 activating peptide; listed as Rattus sp.) [AcPep]”, in the assay with PAR-2 [1], the “intracellular Ca2+” value is reported as “increased”. For the same substance, the “activation of PAR-2” value with PAR-2 [2] is “only activates PAR-2”. Moreover, the “release of CGRP and Substance P from peripheral afferent nerve endings” value in assay [3] was “results in the release of CGRP and Substance P”.
